Paper PMC5256278

How the values were obtained:
[1] = target: squid hemocyanin (Todarodes pacificus) (Todarodes pacificus); experiment: SAXS; Hc after high hydrostatic pressure at 600 MPa for 20 min; Kratky-type camera; aggregation numbers calculated with SAXS Quant 2.0
[2] = target: squid hemocyanin (Todarodes pacificus) (Todarodes pacificus); experiment: SAXS; untreated control Hc (0.1 MPa, 25 °C) in solution; Kratky-type camera; aggregation numbers calculated with SAXS Quant 2.0
[3] = target: squid hemocyanin (Todarodes pacificus) (Todarodes pacificus); experiment: SAXS; Hc after high hydrostatic pressure at 200 MPa for 20 min; Kratky-type camera; aggregation numbers calculated with SAXS Quant 2.0
[4] = target: squid hemocyanin (Todarodes pacificus) (Todarodes pacificus); experiment: SAXS; Hc after high hydrostatic pressure at 400 MPa for 20 min; Kratky-type camera; aggregation numbers calculated with SAXS Quant 2.0

Substance: squid hemocyanin (Todarodes pacificus) (natural protein)
- 〈Nagg〉G (Guinier aggregation number) [1]: 16
- 〈Nagg〉Q (average aggregation number) [1]: 15.2
- 〈Nagg〉G (Guinier aggregation number) [2]: 10.2
- 〈Nagg〉Q (average aggregation number) [2]: 9.3
- 〈Nagg〉G (Guinier aggregation number) [3]: 11.9
- 〈Nagg〉Q (average aggregation number) [3]: 12.7
- 〈Nagg〉G (Guinier aggregation number) [4]: 14.2
- 〈Nagg〉Q (average aggregation number) [4]: 14.4
